According to US20050170442:

Target: T1, Biotin-labeled fluorescent peptide CPRPFSVPP(S*)PDK-(5-FAM) (not fully specified)
T1 chain: CPRPFSVPPSPDK

B1: GSK3α, rHuman (protein)
chain: MSGGGPSGGGPGGSGRARTSSFAEPGGGGGGGGGGPGGSASGPGGTGGGKASVGAMGGGVGASSSGGGPGGSGGGGSGGPGAGTSFPPPGVKLGRDSGKVTTVVATLGQGPERSQEVAYTDIKVIGNGSFGVVYQARLAETRELVAIKKVLQDKRFKNRELQIMRKLDHCNIVRLRYFFYSSGEKKDELYLNLVLEYVPETVYRVARHFTKAKLTIPILYVKVYMYQLFRSLAYIHSQGVCHRDIKPQNLLVDPDTAVLKLCDFGSAKQLVRGEPNVSYICSRYYRAPELIFGATDYTSSIDVWSAGCVLAELLLGQPIFPGDSGVDQLVEIIKVLGTPTREQIREMNPNYTEFKFPQIKAHPWTKVFKSRTPPEAIALCSSLLEYTPSSRLSPLEACAHSFFDELRCLGTQLPNNRPLPPLFNFSAGELSIQPSLNAILIPPHLRSPAGTTTLTPSSQALTETPTSSDWQSTDATPTLTNSS
- TR-FRET ratio (Em520/Em495) after kinase reaction, chymotrypsin development and Tb-streptavidin detection: with GSK3a, a higher TR-FRET ratio than without GSK3α is seen
- TR-FRET ratio (Em520/Em495) in the chymotrypsin titration: with GSK3α a higher TR-FRET ratio than without GSK3α is seen
- amount of enzyme/well needed for roughly 50% maximal signal at 10 µM ATP/well (TR-FRET enzyme titration): 0.05 µg/ml for GSK3α
